Reference: IntAct's records for PubMed 22582013

B1: Extracellular serine/threonine protein kinase FAM20C (Homo sapiens), Q8IXL6 (parent)
chain: MKMMLVRRFRVLILMVFLVACALHIALDLLPRLERRGARPSGEPGCSCAQPAAEVAAPGWAQVRGRPGEPPAASSAAGDAGWPNKHTLRILQDFSSDPSSNLSSHSLEKLPPAAEPAERALRGRDPGALRPHDPAHRPLLRDPGPRRSESPPGPGGDASLLARLFEHPLYRVAVPPLTEEDVLFNVNSDTRLSPKAAENPDWPHAGAEGAEFLSPGEAAVDSYPNWLKFHIGINRYELYSRHNPAIEALLHDLSSQRITSVAMKSGGTQLKLIMTFQNYGQALFKPMKQTREQETPPDFFYFSDYERHNAEIAAFHLDRILDFRRVPPVAGRMVNMTKEIRDVTRDKKLWRTFFISPANNICFYGECSYYCSTEHALCGKPDQIEGSLAAFLPDLSLAKRKTWRNPWRRSYHKRKKAEWEVDPDYCEEVKQTPPYDSSHRILDVMDMTIFDFLMGNMDRHHYETFEKFGNETFIIHLDNGRGFGKYSHDELSILVPLQQCCRIRKSTYLRLQLLAKEEYKLSLLMAESLRGDQVAPVLYQPHLEALDRRLRVVLKAVRDCVERNGLHSVVDDDLDTEHRAASAR

Variants of: B1
Settings: with ostp_human SPP1, P10451
ostp_human SPP1, P10451, sequence (P10451 whole entry): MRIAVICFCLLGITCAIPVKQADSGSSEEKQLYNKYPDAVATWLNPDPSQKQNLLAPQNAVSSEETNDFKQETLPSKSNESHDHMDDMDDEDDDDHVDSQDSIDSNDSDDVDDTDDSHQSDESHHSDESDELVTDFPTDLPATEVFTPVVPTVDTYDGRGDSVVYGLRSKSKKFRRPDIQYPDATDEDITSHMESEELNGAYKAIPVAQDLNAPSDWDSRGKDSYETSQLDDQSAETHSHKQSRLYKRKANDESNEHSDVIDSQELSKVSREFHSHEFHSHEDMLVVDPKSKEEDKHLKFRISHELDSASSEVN

Effect of a mutation on the interaction, with no effect:
MKMMLVRRFRVLILMVFLVACALHIALDLLPRLERRGARPSGEPGCSCAQPAAEVAAPGWAQVRGRPGEPPAASSAAGDAGWPNKHTLRILQDFSSDPSSNLSSHSLEKLPPAAEPAERALRGRDPGALRPHDPAHRPLLRDPGPRRSESPPGPGGDASLLARLFEHPLYRVAVPPLTEEDVLFNVNSDTRLSPKAAENPDWPHAGAEGAEFLSPGEAAVDSYPNWLKFHIGINRYELYSRHNPAIEALLHDLSSQRITSVAMKSGGTQLKLIMTFQNYGQALFKPMKQTREQETPPDFFYFSDYERHNAEIAAFHLDRILDFRRVPPVAGRMVNMTKEIRDVTRDKKLWRTFFISPANNICFYGECSYYCSTEHALCRKPDQIEGSLAAFLPDLSLAKRKTWRNPWRRSYHKRKKAEWEVDPDYCEEVKQTPPYDSSHRILDVMDMTIFDFLMGNMDRHHYETFEKFGNETFIIHLDNGRGFGKYSHDELSILVPLQQCCRIRKSTYLRLQLLAKEEYKLSLLMAESLRGDQVAPVLYQPHLEALDRRLRVVLKAVRDCVERNGLHSVVDDDLDTEHRAASAR [G379R]
MKMMLVRRFRVLILMVFLVACALHIALDLLPRLERRGARPSGEPGCSCAQPAAEVAAPGWAQVRGRPGEPPAASSAAGDAGWPNKHTLRILQDFSSDPSSNLSSHSLEKLPPAAEPAERALRGRDPGALRPHDPAHRPLLRDPGPRRSESPPGPGGDASLLARLFEHPLYRVAVPPLTEEDVLFNVNSDTRLSPKAAENPDWPHAGAEGAEFLSPGEAAVDSYPNWLKFHIGINRYELYSRHNPAIEALLHDLSSQRITSVAMKSGGTQLKLIMTFQNYGQALFKPMKQTREQETPPDFFYFSDYERHNAEIAAFHLDRILDFRRVPPVAGRMVNMTKEIRDVTRDKKLWRTFFISPANNICFYGECSYYCSTEHALCEKPDQIEGSLAAFLPDLSLAKRKTWRNPWRRSYHKRKKAEWEVDPDYCEEVKQTPPYDSSHRILDVMDMTIFDFLMGNMDRHHYETFEKFGNETFIIHLDNGRGFGKYSHDELSILVPLQQCCRIRKSTYLRLQLLAKEEYKLSLLMAESLRGDQVAPVLYQPHLEALDRRLRVVLKAVRDCVERNGLHSVVDDDLDTEHRAASAR [G379E]
MKMMLVRRFRVLILMVFLVACALHIALDLLPRLERRGARPSGEPGCSCAQPAAEVAAPGWAQVRGRPGEPPAASSAAGDAGWPNKHTLRILQDFSSDPSSNLSSHSLEKLPPAAEPAERALRGRDPGALRPHDPAHRPLLRDPGPRRSESPPGPGGDASLLARLFEHPLYRVAVPPLTEEDVLFNVNSDTRLSPKAAENPDWPHAGAEGAEFLSPGEAAVDSYPNWLKFHIGINRYELYSRHNPAIEALLHDLSSQRITSVAMKSGGTQLKLIMTFQNYGQALFKPMKQTREQETPPDFFYFSDYERHNAEIAAFHLDRILDFRRVPPVAGRMVNMTKEIRDVTRDKKLWRTFFISPANNICFYGECSYYCSTEHALCGKPDQIEGSLAAFLPDLSLAKRKTWRNPWRRSYHKRKKAEWEVDPDYCEEVKQTPPYDSSHRILDVMDMTIFDFLMGNMDRHHYETFEKFGNETFIIHLDNGRGFGKYSHDELSILVPLQQCCRIRKSTYLRLQLLAKEEYKLSLLMAESLRGDQVAPVLYQPHLEALDRWLRVVLKAVRDCVERNGLHSVVDDDLDTEHRAASAR [R549W]
MKMMLVRRFRVLILMVFLVACALHIALDLLPRLERRGARPSGEPGCSCAQPAAEVAAPGWAQVRGRPGEPPAASSAAGDAGWPNKHTLRILQDFSSDPSSNLSSHSLEKLPPAAEPAERALRGRDPGALRPHDPAHRPLLRDPGPRRSESPPGPGGDASLLARLFEHPLYRVAVPPLTEEDVLFNVNSDTRLSPKAAENPDWPHAGAEGAEFLSPGEAAVDSYPNWLKFHIGINRYELYSRHNPAIEALLHDLSSQRITSVAMKSGGTQLKLIMTFQNYGQALFKPMKQTREQETPPDFFYFSDYERHNAEIAAFHLDRILDFRRVPPVAGRMVNMTREIRDVTRDKKLWRTFFISPANNICFYGECSYYCSTEHALCGKPDQIEGSLAAFLPDLSLAKRKTWRNPWRRSYHKRKKAEWEVDPDYCEEVKQTPPYDSSHRILDVMDMTIFDFLMGNMDRHHYETFEKFGNETFIIHLDNGRGFGKYSHDELSILVPLQQCCRIRKSTYLRLQLLAKEEYKLSLLMAESLRGDQVAPVLYQPHLEALDRRLRVVLKAVRDCVERNGLHSVVDDDLDTEHRAASAR [K338R]
MKMMLVRRFRVLILMVFLVACALHIALDLLPRLERRGARPSGEPGCSCAQPAAEVAAPGWAQVRGRPGEPPAASSAAGDAGWPNKHTLRILQDFSSDPSSNLSSHSLEKLPPAAEPAERALRGRDPGALRPHDPAHRPLLRDPGPRRSESPPGPGGDASLLARLFEHPLYRVAVPPLTEEDVLFNVNSDTRLSPKAAENPDWPHAGAEGAEFLSPGEAAVDSYPNWLKFHIGINRYELYSRHNPAIEALLHDLSSQRNTSVAMKSGGTQLKLIMTFQNYRQALFKPMKQTREQETPPDFFYFSDYERHNAEIAAFHLDRILDFRRVPPVAGRMVNMTKEIRDVTRDKKLWRTFFISPANNICFYGECSYYCSTEHALCGKPDQIEGSLAAFLPDLSLAKRKTWRNPWRRSYHKRKKAEWEVDPDYCEEVKQTPPYDSSHRILDVMDMTIFDFLMGNMDRHHYETFEKFGNETFIIHLDNGRGFGKYSHDELSILVPLQQCCRIRKSTYLRLQLLAKEEYKLSLLMAESLRGDQVAPVLYQPHLEALDRRLRVVLKAVRDCVERNGLHSVVDDDLDTEHRAASAR [I258N;G280R]
MKMMLVRRFRVLILMVFLVACALHIALDLLPRLERRGARPSGEPGCSCAQPAAEVAAPGWAQVRGRPGEPPAASSAAGDAGWPNKHTLRILQDFSSDPSSNLSSHSLEKLPPAAEPAERALRGRDPGALRPHDPAHRPLLRDPGPRRSESPPGPGGDASLLARLFEHPLYRVAVPPLTEEDVLFNVNSDTRLSPKAAENPDWPHAGAEGAEFLSPGEAAVDSYPNWLKFHIGINRYELYSRHNPAIEALLHDLSSQRITSVAMKSGGTQLKLIMTFQNYGQALFKPMKQTREQETPPDFFYFSDYERHNAEIAAFHLDRILDFRRVPPVAGRMVNMTKEIRDVTRDKKLWRTFFISPANNICFYGECSYYCSTEHALCGKPDQIEGSLAAFLPDLSLAKRKTWRNPWRRSYHKRKKAEWEVDPDYCEEVKQTPPYDSSHRILDVMDMTIFNFLMGNMDRHHYETFEKFGNETFIIHLDNGRGFGKYSHDELSILVPLQQCCRIRKSTYLRLQLLAKEEYKLSLLMAESLRGDQVAPVLYQPHLEALDRRLRVVLKAVRDCVERNGLHSVVDDDLDTEHRAASAR [D451N]
MKMMLVRRFRVLILMVFLVACALHIALDLLPRLERRGARPSGEPGCSCAQPAAEVAAPGWAQVRGRPGEPPAASSAAGDAGWPNKHTLRILQDFSSDPSSNLSSHSLEKLPPAAEPAERALRGRDPGALRPHDPAHRPLLRDPGPRRSESPPGPGGDASLLARLFEHPLYRVAVPPLTEEDVLFNVNSDTRLSPKAAENPDWPHAGAEGAEFLSPGEAAVDSYPNWLKFHIGINRYELYSRHNPAIEALLHDLSSQRITSVAMKSGGTQLKLIMTFQNYGQALFKPMKQTREQETPPDFFYFSDYERHNAEIAAFHLDRILDFRRVPPVAGRMVNMTKEIRDVTRDKKLWRTFFISPANNICFYGECSYYCSTEHALCGKPDQIEGSLAAFLPDLSLAKRKTWRNPWRRSYHKRKKAEWEVDPDYCEEVKQTPPYDSSHRILDVMDMTIFDFLMGNMDRHHYETFEKFGNETFIIHLANGRGFGKYSHDELSILVPLQQCCRIRKSTYLRLQLLAKEEYKLSLLMAESLRGDQVAPVLYQPHLEALDRRLRVVLKAVRDCVERNGLHSVVDDDLDTEHRAASAR [D478A]
MKMMLVRRFRVLILMVFLVACALHIALDLLPRLERRGARPSGEPGCSCAQPAAEVAAPGWAQVRGRPGEPPAASSAAGDAGWPNKHTLRILQDFSSDPSSNLSSHSLEKLPPAAEPAERALRGRDPGALRPHDPAHRPLLRDPGPRRSESPPGPGGDASLLARLFEHPLYRVAVPPLTEEDVLFNVNSDTRLSPKAAENPDWPHAGAEGAEFLSPGEAAVDSYPNWLKFHIGINRYELYSRHNPAIEALLHDLSSQRITSVAMKSGGTQLKLIMTFQNYGQALFKPMKQTREQETPPDFFYFSDYERHNAEIAAFHLDRILDFRRVPSVAGRMVNMTKEIRDVTRDKKLWRTFFISPANNICFYGECSYYCSTEHALCGKPDQIEGSLAAFLPDLSLAKRKTWRNPWRRSYHKRKKAEWEVDPDYCEEVKQTPPYDSSHRILDVMDMTIFDFLMGNMDRHHYETFEKFGNETFIIHLDNGRGFGKYSHDELSILVPLQQCCRIRKSTYLRLQLLAKEEYKLSLLMAESLRGDQVAPVLYQPHLEALDRRLRVVLKAVRDCVERNGLHSVVDDDLDTEHRAASAR [P328S]
